According to paper PMC7948471, “RSU-1 interaction with prohibitin-2 links cell–extracellular matrix detachment to downregulation of ERK signaling” (The Journal of Biological Chemistry, 2020):
Values belong to the binder of their own block, whether it stands above or below them.

Target: T1, GST-tagged RSU1 (full length) (human, UniProt Q15404 1-277)
T1 construct: Ras suppressor 1 (RSU1), human; the ORF inserted into pGEX-5x-1; In solution in the MBP-PHB2 pull-down; as bait in the pull-down of venus-PHB2; also called GST-RSU1; source: E. coli, purified (glutathione-Sepharose 4B)
T1 sequence (looked up): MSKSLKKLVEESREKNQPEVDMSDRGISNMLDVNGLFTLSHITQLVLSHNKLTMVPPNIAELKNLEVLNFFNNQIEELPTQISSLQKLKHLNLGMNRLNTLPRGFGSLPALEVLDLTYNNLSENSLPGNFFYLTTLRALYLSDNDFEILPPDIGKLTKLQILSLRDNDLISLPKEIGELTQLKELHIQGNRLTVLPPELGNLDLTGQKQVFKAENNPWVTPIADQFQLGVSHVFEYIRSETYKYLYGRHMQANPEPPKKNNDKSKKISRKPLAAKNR
Experiment: pull-down; GST-RSU1 (10 μg/ml) with amylose beads holding MBP-tagged full-length or deletion forms of PHB2 or MBP; 1% Triton X-100, 10 mM Tris, 100 mM NaH2PO4, pH 8.0; 4 °C, 3 h; Western blot with anti-RSU1
Conditions: both partners purified

binding result: binds
B1: MBP-tagged PHB2 mutant in which amino acids 150 to 206 are deleted (Δ150–206) (natural protein, human, UniProt Q99623 1-299, looked up)
chain: MAQNLKDLAGRLPAGPRGMGTALKLLLGAGAVAYGVRESVFTVEGGHRAIFFNRIGGVQQDTILAEGLHFRIPWFQYPIIYDIRARPRKISSPTGSKDLQMVNISLRVLSRPNAQELPSMYQRLGLDYEERVLPSIVNEVLKSVVAKFNAQRAQFLVEKAKQEQRQKIVQAEGEAEAAKMLGEALSKNPGYIKLRKIRAAQNISKTIATSQNRIYLTADNLVLNLQDESFTRGSDSLIKGKK
notes: source: E. coli, purified (amylose-agarose beads)

binding result: binds
B2: MBP-tagged PHB2 middle region (amino acids 150–206) (domain or fragment, human, UniProt Q99623 150-206, looked up)
chain: ASQLITQRAQVSLLIRRELTERAKDFSLILDDVAITELSFSREYTAAVEAKQVAQQE
notes: as for B1
